According to US20050002930A1:

Molecular target: α5β1 integrin on CD14+ blood monocytes of the dosed animals
Assay: FACS occupancy on blood monocytes compared with serum levels of M200

B1: M200 chimeric (mouse/human IgG4) anti-α5β1 integrin antibody (antibody, V domains shown)
VH: QVQLKESGPGLVAPSQSLSITCTISGFSLTDYGVHWVRQPPGKGLEWLVVIWSDGSSTYNSALKSRMTIRKDNSKSQVFLIMNSLQTDDSAMYYCARHGTYYGMTTTGDALDYWGQGTSVTVSS
VL: QIVLTQSPAIMSASLGERVTMTCTASSSVSSNYLHWYQQKPGSAPNLWIYSTSNLASGVPARFSGSGSGTSYSLTISSMEAEDAATYYCHQYLRSPPTFGGGTKLEIKR
- serum concentration sufficient to completely saturate monocyte α5β1 integrin binding sites: 60 µg/mL
